Measurements from the nanobody polyreactivity screen of Harvey et al. (2022).

Test: yeast display, Sf9 membrane polyspecificity reagent, FACS + sequencing; frameworks hold sequencing errors
In short: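 Galactose induction of a Saccharomyces cerevisiae BJ5465 synthetic nanobody display library ran 36–48 hours. The cells were then stained for 1 hour at 4 °C with 10% biotinylated, detergent-solubilized Sf9 membrane reagent, pulled down on streptavidin microbeads and FACS-sorted into low and high (top ~1%) gates on expression and reagent-binding fluorescence. Labels for polyreactivity follow the gate of origin.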

Sequence	polyreactivity (PSR sort gate)
QVQLVESGGGLVQPGGSLRLSCAASGSIFAYNAMGWSRQAPGKERELVAAISSGGRTKYADSVKGRFTITRDNAKITVYFQMNRQKPEDTAVYYCAAESYTGKYSWVWKWYDYWGQGTQVSVSS	low polyreactivity
QVQLVESGGGLVQPGGSLRLSCAASGSIFPRNAMGWYRKAPGKERELVAGISYGGSTTYYADSVKGRFTISRDNAKNTVYLQMNSLKPEDTAVYYCAALQQYRRQTTYSSQLYYWGQGTQVTVSS	high polyreactivity
QVQLVESGGGLVQPGGSLRLSCAASGSTFEYNAMGWYRQAPGKERELVASSTNYADSVKGRFTISRDNAKNTVYLQMNSLKPEDTAVYYCAREQGVNRNHDYWGQGTQVTVSS	low polyreactivity
QVQLVESGGGLVQPGGSLRLSCAASGYTFWQYAMGWYRQAPGKERELVAAISGSGGRTYYADSVKGRFTISRDNAKNTVYLQMNSLKPEDTAVYYCAAPYLRYYLGWYDYWGQGTQVTVSS	high polyreactivity
QVQLVESGGGLVQSGASLRLSCAASGSIFDSYTMGWYRQAPGKEREWVAAISWSGGRTYYADSVKGRFTISRDNAKNTVYLQMNTLKPEDTAVYYCAARNVWKYLFGYDYWGQGTQVTVSS	high polyreactivity
QVQLVESGGGLVQSGGSLRLSCAASGFIFLNYAMGWYRQAPGKERQLVAAITSGGNTTYADSVKGRFTISRDNAKNTVYLQMNSLKPEDTAVYYCAAEWASRYAVFWAYPKYDYWGQGTQVTVAS	low polyreactivity
QVQLVESGGGLVQSGGSLRLSCAASGFTFSRYAMGWYRQAPGKERELVAAIRLRDGITYYADSVKVRFTISRDNAKNTVYLQMNSLKPEDTAVYYFNAVNRTPVSQLDYWGQGTQVTVSS	high polyreactivity
QVQLVESGGGLVQSGGSLRLSCAASGIIFCRYAMGWYRQAPGKERELVATITWRGGSTYDADSVKGRFTISRDNAKNTVYLQMNSLKPEDTAVYYCAADNRQSRSFRARAYWGQGNQVTVSS	low polyreactivity
QVQLVESGGGLVQSGGSLRLSCAASGLIFGRYAMGWYRQAPGKERELVAAISYSGARTYYADSVKGRFTISRDNEKNTVYLQMNSLKPEDTAVYYCAAGPAFRQSEWWKAYDYWGQGTQVTVSS	high polyreactivity
QVQLVESGGGLVQSGGSLRLSCAASGLIFYDNMGWYIQAPGKERELVAAISSSGGSTSYADSVKGRFTISRDNAKNTVYLQMNSLKPEDTAVYYCAADSYPAYLGFVGFDYWGQGTQVTVSS	low polyreactivity
QVQLVESGGGLVQSGGSLRLSCAASGNTFTFYAMGWYRQAPGKERELVAVISQIADGCTYYADSVKGRFTISRDNSKNSVYLQMNSLKPEDTAVYYCIAQTWDEYWGQGTQVTVSS	low polyreactivity
QVQLVESGGGLVQSGGSLRLSCAASGRTFSKNAMGWYRQAPGKERELVAAISGSGGSTYYADSVKGRFTISRDNAKNTVYLQMNSLKPEDTAVYYCADRYTVRRSGYWGQGTQVTVSS	high polyreactivity
QVQLVESGGGLVQSGGSLRLSCAASGSIFNLYAMGWYRQAPGKERELVAAINWSGGSTYYADSVNGRFTISRDNAKNTVYLQMNRLKPEDTAVSYCAADAYSTYYGYEGVYWGQGTQVTVSS	low polyreactivity
QVQLVESGGGLVQSGGSLRLSCAASGSINVYYAMGLYRQEPGKERDLVAAISASGGSTYYADSVKGRFTISRDNAKNTFYLQMKSLKPEDTAVYYCAADTFYSYYDMDYWGQGTQVTVSS	low polyreactivity
QVQLVESGGGLVQSGGSLRLSCAASGSNFITYAMGWYRQAPGKERELVAAIRDSGDRTYYADSVKGRFTISRDNAKNTVYLQMNSLKPEDTAVYYCNARWQEPLKYDYWGQGTQVTVSS	low polyreactivity
QVQLVESGGGLVQSGGSLRLSCAASGSTFVSNAMGWYRQAPGKERELFAAINGSGGITYYADSVKGRFTISRDNAKNTVYLQMNSLKPEDTAVYYCAAEYDGPYTWVDYYYHYGYWGQGTEVTVSS	low polyreactivity
QVQLVESGGGLVQSGGSLRLSCAASGSTSTSYVMGWYRQAPGKERELVAVITLRSGVTYYADSVKARFTISRDNPKYTVYLQMNSLKAEDTAVYYCNAATVVYTRVWRGYWGQGTHVTVSS	low polyreactivity
QVQLVESGGGLVQSGGSLRLSCAASVIIFAWYAMGWYRQAPGKERELVAAITANSDSTYYADSVKGRFTISRDNAKNTVYLQMNSLKPEDTAVYDCAKRTYSRKFRGAYNYWGQGTQVTVSS	high polyreactivity
QVQLVESGGGLVQSGGSLRLSCADSVRTFNYYAMGWYRQAPGKERELVATISWSGVSTRYADSVKGRFTISRDNEKNTVYLQMNSLKPEDTAVYYCNAGYSKRSFYSAYGYWGQGTQVTVSS	high polyreactivity
QVQLVESGGGLVQSGGSLRLTCAASGYIFGYYTMGWYRQAPGKERELVATIRSGGSTYYADSVKGRFTISRDNAKNTVFLHMNSLKAEDTAVYYCAIRVRRISEYGYWGQGTQVTVSS	high polyreactivity
QVQLVESGGGLVQSGRSLRLSCAASGSISVWYVMGWYRPAPGKEMELVAAITRSGGSTFYAYSVKGRFTISRDNAKNTVYLQMNSLKPEDTAVYYCAADGGVAWGYGYWGQGTQVTVSS	low polyreactivity
QVQLVESGGGLVQTGGILRLSCAASGRIFYYNAMGWYRQEPGKERDFFAAITSSSGSSTYYADSVKGRFTISLDNAKNTVYLQMNSLKPEVTAVYYCAAVGTFIIRYLSRSSYWGQGTQVTVSS	low polyreactivity

Sequence	polyreactivity (PSR sort gate)
QVQLVESGGGLVQTGGSLRLSCAASGRIFFDNAMGWYRQAPGKERELVAGIDSGGSTYYADSVKGRFTISRDNAKNTVYLQMNSLKPEDTAVYYCNSDYPPSTQSPLLQSYDYWGQGTQVTVSS	low polyreactivity
QVQLVESGGGLVQVGGSLRLSCAASGFTFYDYAMGWYRQAPGKERELVAAMSRGGSTYYADSVKGRFTISRDNAKNTVYLQMNSLKPEDTAVYYCNARPTRIYHGMGYWGQGTQVTVSW	low polyreactivity
QVQLVESGGGLVQVGGSLRLSCAASGGIFSGNAMGWYRQAPGKERELVAGITNCGRTSYADSVKGRFTISRDNAKNTDYFQMNSLKPEDTAVYYCNAKVGAYLNYGYWGQGTQVTVSS	low polyreactivity
QVQLVESGGGLVQVGGSLRLSCAASGITLSYYAMGWYRQAPGKERELVASITVSRTSTYYADSVKGRFTISRDNAKNTVYLQMNSLKPEDTAVYYCAAYAYQYRFSGYGYWGQGTQVTVSS	low polyreactivity
QVQLVESGGGLVRAGGSLRLSCAASGSIFKYYAMGWYRQAPGKDRELVAAISWSGGSTFYADSVKGRFTISRDNAKNTVYLQMNSLKPEDTAVFYCARYKLRSGRSGDHDVYWGQGTQVTVSS	high polyreactivity
QVQLVESGGGLVRAGGSLRLSCAASGSTFPFYAMGWYRQAPGKERELVAAITSGGSTYADSVKGRFTISRDNAKNTVYFQMNSLKAEVTAVYYCAASWPRWWRFGYWGQGTQVTVSS	low polyreactivity
QVQLVESGGGLYQAGGSLRLSCAASGIIFKSYLMGWDRQAPGKEREFVARITYRGGSTYYADSVKGRFTISRDNAKYTFNLQMNSLNQEDTAVYYCIARVRRRRYKYDYWGQGTQVTVST	high polyreactivity
QVQLVESGGGLYQARGSLRLSCAASGSIFLDNAKGWYRQAPGKERELVAAISSGGNTNYADSVKGRFTISRDNAKNTVYLQINSLKPEDTAVYYCAADPTKWHYYLPRYYYWGQGTQVTLSS	low polyreactivity
QVQLVESGGGRVQAGGSLRLSCAASGITFDANAMGWDRQAPGKERELVARISSGGSTNYADSVKGRFTISRDNAKNTVYLQMNSLKPEDTAVYYCAKSYQYGFDYWGQGTQVNVSS	low polyreactivity
QVQLVESGGGRVQAGGSLRLSCAASGSIFFIYAMGWDRQAPSKEREFVAAISYGGGSTYYADSVKGRFTISRDNAKNTVYLQMNSLKPEDTAVYYCNADVPKSLLLYYPWGYGYWGQGTQVNVSS	low polyreactivity
QVQLVESGGGSVQAGGSLRLSCAASGFTIRTYAMGWYRQAPGKERELVAAITSSGSSTYYAYSVKGRFTISRDNAKNTVYLQMNSLKPEDTAVYYCAADAPRSYRFGYWGQGTQVTVSA	high polyreactivity
QVQLVESGGGVVQAGGSLRISCAATGFIFRWYAMGWYIQAPGKERELVASINWSGSRTNYADPVKGRFTISRDNAKNTVYLQMNSLKPEDTAVYYCATYGTTSGYDSWGQGTQVTVSS	high polyreactivity
QVQLVESGGGVVQAGGSLRLSCAASGFIFHQNAMGWYRPAPGKERELVAAITRSGTSTYYADSVKGRFTISRDYAKNTVYLQMYSLKPEDTAVYYCANDPVRVGRFGYEYWGQGTQVTVSS	low polyreactivity
QVQLVESGGGVVQAGGSLRLSCAASGFIFPLYTMGWSRQAPGKERELVAAITGSGGSTYYADSVKGRFTISRDNAKNTVYLQMNSLKPEDTAVYYCAKDYTYGMDWGQGTQVTVSS	low polyreactivity
QVQLVESGGGVVQAGGSLRLSCAASGFIFYYNTMGWYRQAPGKERELVASMTWSGDTTYYADSVKGRFTISRDNAKNTVYLQMNSLTPEDTAVYYCAAVHYDPYRRYDYWGQGTQVTVSS	low polyreactivity
QVQLVESGGGVVQAGGSLRLSCAASGFTPGNVMGGYRQAPGKERELVAAISWTGDSTYYAASVKGRFTISRDNAKNTVYLQMNSLKPEDTAVYYCAADGVPGRALDYEYWGQGTQVTVSS	high polyreactivity
QVQLVESGGGVVQAGGSLRLSCAASGGIILEYVMGWYRQARGEERELVAAISWSGTSTYYADSVKGRFTISRDNAKNTVYLQMNSLKPEDTAVYYCAKSEGVYSGWYGVDDYDYWGQGTQVTVSS	low polyreactivity
QVQLVESGGGVVQAGGSLRLSCAASGINFGRNTMGWYRQAPGKERELVAAIDSGGNTYADSVKGRFTISRDNAKNTVYLQMNSLKPEDTAVYYCAVDGGEFSSYGYWGQGTQVTVSS	low polyreactivity
QVQLVESGGGVVQAGGSLRLSCAASGITFQYYDMGWFRPAPGKERELVAAISWSTDMTYADSVKGRFTISRDNAKNTDYLQMNSLKPEDTAVYYCAASTYEYTSYDYWGQGTQVTVSS	low polyreactivity
QVQLVESGGGVVQAGGSLRLSCAASGLIFSPYAMGWYRPAPGKERELVAVITRSGGRTYYADSVKGRFTISRDNAKNTVYLQMNSLKPEDTAVYYCAATPKSWSSSTRDYWGQGTQVTVSS	high polyreactivity
QVQLVESGGGVVQAGGSLRLSCAASGLTFKFYAMGWYIQAPGKERELVAAINRSGSSTYYADSVKGRFTISRDNAKNTVYLQMNSLKPEDTAVYYCAKDSFTSTRQYDYWGQGTQVTVSS	low polyreactivity
